Assay results taken from US20150344535A1, “NEUROTROPHIN-TYROSINE KINASE RECEPTOR SIGNALING” (THE UNIVERSITY OF QUEENSLAND, priority 2012, published 2015).

Tests used:
[1] = biological target: TrkA endogenously expressed in PC12 cells (UniProt P35739); assay: cell-based or functional assay
TrkAK538A = assay: cell-based or functional assay

TrkA endogenously expressed in PC12 cells, sequence (P35739 33-799 limits assumed): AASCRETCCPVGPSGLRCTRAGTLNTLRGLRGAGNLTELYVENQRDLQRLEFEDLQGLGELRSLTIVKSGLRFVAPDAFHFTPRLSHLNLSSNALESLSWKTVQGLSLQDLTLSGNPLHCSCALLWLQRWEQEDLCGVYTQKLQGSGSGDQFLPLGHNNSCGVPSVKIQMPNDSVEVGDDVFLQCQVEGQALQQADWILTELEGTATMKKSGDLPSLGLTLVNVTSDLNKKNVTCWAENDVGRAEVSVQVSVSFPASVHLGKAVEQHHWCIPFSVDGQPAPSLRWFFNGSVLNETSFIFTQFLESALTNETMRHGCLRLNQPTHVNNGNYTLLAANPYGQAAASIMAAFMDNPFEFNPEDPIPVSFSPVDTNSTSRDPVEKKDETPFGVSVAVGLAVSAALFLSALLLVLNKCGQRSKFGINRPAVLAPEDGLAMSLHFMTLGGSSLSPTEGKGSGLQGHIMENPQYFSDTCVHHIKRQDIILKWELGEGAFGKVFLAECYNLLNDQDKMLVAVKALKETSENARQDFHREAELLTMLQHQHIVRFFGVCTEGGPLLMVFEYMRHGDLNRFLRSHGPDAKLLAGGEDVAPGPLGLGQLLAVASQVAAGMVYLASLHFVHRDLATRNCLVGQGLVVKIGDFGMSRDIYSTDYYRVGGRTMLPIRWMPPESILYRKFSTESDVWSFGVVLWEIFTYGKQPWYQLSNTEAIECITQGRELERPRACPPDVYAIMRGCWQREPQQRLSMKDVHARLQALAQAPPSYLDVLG

- neurite outgrowth of PC12 cells overexpressing the construct, 100 ng/ml NGF, 5 days [1]: 60%
- neurite outgrowth of PC12 cells co-expressing p75^ICD and TrkAK538A after NGF treatment (TrkAK538A): 10 to 40 µm
Substance: p75^ICD-YFP (from UniProt P08138 273-427) (receptor)
